{
  "source": "paper PMC7468209",
  "about": "“The Nucleoid Occlusion Protein SlmA Binds to Lipid Membranes” (mBio, 2020)",
  "proteins": {"B1": {"name": "SlmA (natural protein, E. coli, UniProt P0C093 1-198, looked up)", "chain": "MAEKQTAKRNRREEILQSLALMLESSDGSQRITTAKLAASVGVSEAALYRHFPSKTRMFDSLIEFIEDSLITRINLILKDEKDTTARLRLIVLLLLGFGERNPGLTRILTGHALMFEQDRLQGRINQLFERIEAQLRQVLREKRMREGEGYTTDETLLASQILAFCEGMLSRFVRSEFKYRPTDDFDARWPLIAAQLQ", "modifications": "Alexa Fluor 488 on amino groups (0.3-0.6 mol dye per mol protein), only in the tracer fraction (1 uM of 5 uM) of the microdroplet experiments; unlabelled in the sedimentation velocity experiments", "notes": "SlmA, nucleoid occlusion protein of Escherichia coli; also called nucleoid occlusion protein SlmA; nucleoid occlusion factor SlmA"}},
  "target": "the molecule itself",
  "test": "AUC; sedimentation velocity, 5 uM SlmA without SBS, working buffer (50 mM Tris-HCl pH 7.5, 5 mM MgCl2) with 100, 300 or 500 mM KCl, 48,000 rpm, 20 C, absorbance at 230 nm, c(s) in SEDFIT",
  "data": [
    {"protein": "B1", "values": [
      {"measurement": "stoichiometry N", "value": 2}
    ]}
  ]
}
